{
  "source": "patent US20240092919A1",
  "data": [
    {"biological_target": "human GPC3 on cells (human) (UniProt P51654)", "assay": "cell-based or functional assay", "units": {"HepG2 on Incucyte IC50 (M), human TDC, E:T 15:1, 60 h": "M", "HepG2 on Incucyte Max % killing, 60 h": "%", "Huh7 on xCELLigence IC50 (M), human TDC, E:T 15:1, 60 h": "M", "Huh7 on xCELLigence Max % killing, 60 h": "%", "IC50 (M), xCELLigence human TDC assay on Hep-G2, E:T 15:1, 60 h": "M", "IC50 (M), xCELLigence human TDC assay on Huh-7, E:T 15:1, 60 h": "M", "IC50 (M), xCELLigence human TDC assay on NCI-H661, E:T 15:1, 75 h": "M"}, "values": [
      {"binder": "A022600167 (protein) DVQLVESGGGVVQPGGSLRLSCVASGYVHKINFYGWYRQAPGKEREKVAHISIGDQTDYADSAKGRFTISRDESKNTVYLQMNSLRPEDTAAYYCRALSRIWPYDYWGQGTLVTVSSGGGGSEVQLVESGGGLVQPGGSLRLSCVASGFTFSSFAMTWVRRPPGKGLEWVATITNGGVTSYRDSVKGRFTISRDNAKNTLYLEMTSLNPEDTAVYICANARRTGPRAPTDIGSYRGQGTLVTVSSGGGGSGGGGSGGGGSGGGGSGGGGSGGGGSGGGGSEVQLVESGGGVVQPGGSLRLSCAASGFTFRSFGMSWVRQAPGKGPEWVSSISGSGSDTLYADSVKGRFTISRDNSKNTLYLQMNSLRPEDTALYYCTIGGSLSRSSQGTLVTVSSA", "HepG2 on Incucyte IC50 (M), human TDC, E:T 15:1, 60 h": "1.92e-09", "HepG2 on Incucyte Max % killing, 60 h": 98, "Huh7 on xCELLigence IC50 (M), human TDC, E:T 15:1, 60 h": "8.61e-09", "Huh7 on xCELLigence Max % killing, 60 h": 91, "IC50 (M), xCELLigence human TDC assay on Hep-G2, E:T 15:1, 60 h": "9.2e-11", "IC50 (M), xCELLigence human TDC assay on Huh-7, E:T 15:1, 60 h": "4.7e-10", "IC50 (M), xCELLigence human TDC assay on NCI-H661, E:T 15:1, 75 h": "1.8e-10"},
      {"binder": "A022600174 (protein) DVQLVESGGGVVQPGGSLRLSCVASGYVHKINFYGWYRQAPGKEREKVAHISIGDQTDYADSAKGRFTISRDESKNTVYLQMNSLRPEDTAAYYCRALSRIWPYDYWGQGTLVTVSSGGGGSEVQLVESGGGLVQPGGSLRLSCVASGFTFSSFAMTWVRRPPGKGLEWVATITNGGVTSYRDSVKGRFTISRDNAKNTLYLEMTSLNPEDTAVYICANARRTGPRAPTDIGSYRGQGTLVTVSSGGGGSGGGSEVQLVESGGGLVQPGGSLRLSCVASGSIFRSVFSSSTMEWYRQPPGKKRELVARIAPGDGTNYGALYADSVKGRFTISRDDAKKTVDLQMNSLKPEDTGVYFCASGVAWGQGTLVTVSSGGGGSGGGSEVQLVESGGGVVQPGGSLRLSCAASGFTFRSFGMSWVRQAPGKGPEWVSSISGSGSDTLYADSVKGRFTISRDNSKNTLYLQMNSLRPEDTALYYCTIGGSLSRSSQGTLVTVSSA", "HepG2 on Incucyte IC50 (M), human TDC, E:T 15:1, 60 h": "6.73e-10", "HepG2 on Incucyte Max % killing, 60 h": 96, "Huh7 on xCELLigence IC50 (M), human TDC, E:T 15:1, 60 h": "6.26e-11", "Huh7 on xCELLigence Max % killing, 60 h": 99},
      {"binder": "A022600168 (protein) DVQLVESGGGVVQPGGSLRLSCVASGYVHKINFYGWYRQAPGKEREKVAHISIGDQTDYADSAKGRFTISRDESKNTVYLQMNSLRPEDTAAYYCRALSRIWPYDYWGQGTLVTVSSGGGGSEVQLVESGGGLVQPGGSLRLSCVASGFTFSSFAMTWVRRPPGKGLEWVATITNGGVTSYRDSVKGRFTISRDNAKNTLYLEMTSLNPEDTAVYICANARRTGPRAPTDIGSYRGQGTLVTVSSGGGGSGGGGSGGGGSGGGGSGGGGSGGGGSGGGGSEVQLVESGGGLVQPGGSLRLSCVASGSIFRSVFSSSTMEWYRQPPGKKRELVARIAPGDGTNYGALYADSVKGRFTISRDDAKKTVDLQMNSLKPEDTGVYFCASGVAWGQGTLVTVSSGGGGSGGGGSGGGGSGGGGSGGGGSGGGGSGGGGSEVQLVESGGGVVQPGGSLRLSCAASGFTFRSFGMSWVRQAPGKGPEWVSSISGSGSDTLYADSVKGRFTISRDNSKNTLYLQMNSLRPEDTALYYCTIGGSLSRSSQGTLVTVSSA", "HepG2 on Incucyte IC50 (M), human TDC, E:T 15:1, 60 h": "3.67e-10", "HepG2 on Incucyte Max % killing, 60 h": 103, "Huh7 on xCELLigence IC50 (M), human TDC, E:T 15:1, 60 h": "1.98e-10", "Huh7 on xCELLigence Max % killing, 60 h": 107, "IC50 (M), xCELLigence human TDC assay on Hep-G2, E:T 15:1, 60 h": "7.3e-11", "IC50 (M), xCELLigence human TDC assay on Huh-7, E:T 15:1, 60 h": "2.4e-11", "IC50 (M), xCELLigence human TDC assay on NCI-H661, E:T 15:1, 75 h": "1.4e-10"},
      {"binder": "A022600169 (protein) DVQLVESGGGLVQPGGSLRLSCVASGFTFSSFAMTWVRRPPGKGLEWVATITNGGVTSYRDSVKGRFTISRDNAKNTLYLEMTSLNPEDTAVYICANARRTGPRAPTDIGSYRGQGTLVTVSSGGGGSEVQLVESGGGVVQPGGSLRLSCVASGYVHKINFYGWYRQAPGKEREKVAHISIGDQTDYADSAKGRFTISRDESKNTVYLQMNSLRPEDTAAYYCRALSRIWPYDYWGQGTLVTVSSGGGGSEVQLVESGGGLVQPGGSLRLSCVASGSIFRSVFSSSTMEWYRQPPGKKRELVARIAPGDGTNYGALYADSVKGRFTISRDDAKKTVDLQMNSLKPEDTGVYFCASGVAWGQGTLVTVSSGGGGSGGGGSGGGGSGGGGSGGGGSGGGGSGGGGSEVQLVESGGGVVQPGGSLRLSCAASGFTFRSFGMSWVRQAPGKGPEWVSSISGSGSDTLYADSVKGRFTISRDNSKNTLYLQMNSLRPEDTALYYCTIGGSLSRSSQGTLVTVSSA", "HepG2 on Incucyte IC50 (M), human TDC, E:T 15:1, 60 h": "6.41e-10", "HepG2 on Incucyte Max % killing, 60 h": 81, "Huh7 on xCELLigence IC50 (M), human TDC, E:T 15:1, 60 h": "1.02e-09", "Huh7 on xCELLigence Max % killing, 60 h": 61},
      {"binder": "A022600175 (protein) DVQLVESGGGVVQPGGSLRLSCVASGYVHKINFYGWYRQAPGKEREKVAHISIGDQTDYADSAKGRFTISRDESKNTVYLQMNSLRPEDTAAYYCRALSRIWPYDYWGQGTLVTVSSGGGGSEVQLVESGGGLVQPGGSLRLSCVASGFTFSSFAMTWVRRPPGKGLEWVATITNGGVTSYRDSVKGRFTISRDNAKNTLYLEMTSLNPEDTAVYICANARRTGPRAPTDIGSYRGQGTLVTVSSGGGGSGGGSEVQLVESGGGLVQPGGSLRLSCVASGSIFRSVFSSSTMEWYRQPPGKKRELVARIAPGDGTNYGALYADSVKGRFTISRDDAKKTVDLQMNSLKPEDTGVYFCASGVAWGQGTLVTVSSGGGGSGGGGSGGGGSGGGGSGGGGSGGGGSGGGGSEVQLVESGGGVVQPGGSLRLSCAASGFTFRSFGMSWVRQAPGKGPEWVSSISGSGSDTLYADSVKGRFTISRDNSKNTLYLQMNSLRPEDTALYYCTIGGSLSRSSQGTLVTVSSA", "HepG2 on Incucyte IC50 (M), human TDC, E:T 15:1, 60 h": "5.27e-10", "HepG2 on Incucyte Max % killing, 60 h": 96, "Huh7 on xCELLigence IC50 (M), human TDC, E:T 15:1, 60 h": "5.86e-11", "Huh7 on xCELLigence Max % killing, 60 h": 99}
    ]}
  ]
}
